Test results as given in paper PMC6735382.

How the values were obtained:
[1] = target: Clover-PPARγ1 (human peroxisome proliferator-activated receptor gamma isoform 1, N-terminally labeled with Clover) (human) (UniProt P37231)
[2] = target: Clover-PPARγ1 (human peroxisome proliferator-activated receptor gamma isoform 1, N-terminally labeled with Clover) (human) (UniProt P37231); experiment: FRET or BRET; flow cytometry-based FRET (Clover donor, mRuby2 acceptor) in living, stably transduced HEK293T cells; percent FRET-positive among Clover/mRuby2-double positive cells and FRET efficiency from fluorescence medians; N-CoR2 WT cells also treated 24 h with DMSO, 1 µM rosiglitazone, 10 µM GW9662 or both

Chain of UniProt P37231 (P37231 29-505): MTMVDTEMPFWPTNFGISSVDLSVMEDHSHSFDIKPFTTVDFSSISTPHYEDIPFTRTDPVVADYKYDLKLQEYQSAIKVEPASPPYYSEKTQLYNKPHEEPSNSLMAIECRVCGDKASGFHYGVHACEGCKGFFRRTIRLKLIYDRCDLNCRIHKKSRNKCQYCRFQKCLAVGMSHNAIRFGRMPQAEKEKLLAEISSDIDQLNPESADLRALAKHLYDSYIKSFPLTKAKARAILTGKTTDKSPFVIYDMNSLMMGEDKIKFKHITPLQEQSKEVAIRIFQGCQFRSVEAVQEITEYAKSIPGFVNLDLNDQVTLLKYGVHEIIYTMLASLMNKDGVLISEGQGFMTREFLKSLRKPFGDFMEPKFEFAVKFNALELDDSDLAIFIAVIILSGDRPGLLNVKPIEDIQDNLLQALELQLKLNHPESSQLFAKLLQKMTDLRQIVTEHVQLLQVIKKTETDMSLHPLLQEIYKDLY

PPARγ-dependent transactivation (PPRE reporter p(AOX)3-TK-Luc) in HEK293T cells, 1 µM rosiglitazone 24 h against DMSO [1]: 3.5 fold
percent FRET-positive cells [2]: 70%
Substance: N-CoR2 WT-mRuby2 (N-terminally truncated human nuclear receptor co-repressor 2 with ID2 and ID1, C-terminally labeled with mRuby2) (domain or fragment)
